# Several values for one entry are separate records, joined by “and”; a condition that tells them apart may be missing. Equal values may be shown once.
# B1: Perk luminal domain region I–IV (residues 54–403) (domain or fragment, human, UniProt Q9NZJ5 54-403, looked up)
# chain: TSATRVPAAGAVAAAEVTVEDAEALPAAAGEQEPRGPEPDDETELRPRGRSLVIISTLDGRIAALDPENHGKKQWDLDVGSGSLVSSSLSKPEVFGNKMIIPSLDGALFQWDQDRESMETVPFTVESLLESSYKFGDDVVLVGGKSLTTYGLSAYSGKVRYICSALGCRQWDSDEMEQEEDILLLQRTQKTVRAVGPRSGNEKWNFSVGHFELRYIPDMETRAGFIESTFKPNENTEESKIISDVEEQEAAIMDIVIKVSVADWKVMAFSKKGGHLEWEYQFCTPIASAWLLKDGKVIPISLFDDTSYTSNDDVLEDEEDIVEAARGATENSVYLGMYRGQLYLQSSVRI
# notes: Perk, human, luminal domain regions I-IV, residues 54-403; also called Perk I–IV; source: E. coli BL21 (DE3), purified (Co2+-NTA, anion exchange, SEC); not shown: His6, N-terminal, cleaved
# B2: Ire1 luminal domain, complete (region I–V, residues 24–440) (domain or fragment, human, UniProt O75460 24-440, looked up)
# chain: STVTLPETLLFVSTLDGSLHAVSKRTGSIKWTLKEDPVLQVPTHVEEPAFLPDPNDGSLYTLGSKNNEGLTKLPFTIPELVQASPCRSSDGILYMGKKQDIWYVIDLLTGEKQQTLSSAFADSLCPSTSLLYLGRTEYTITMYDTKTRELRWNATYFDYAASLPEDDVDYKMSHFVSNGDGLVVTVDSESGDVLWIQNYASPVVAFYVWQREGLRKVMHINVAVETLRYLTFMSGEVGRITKWKYPFPKETEAKSKLTPTLYVGKYSTSLYASPSMVHEGVAVVPRGSTLPLLEGPQTDGVTIGDKGECVITPSTDVKFDPGLKSKNKLNYLRNYWLLIGHHETPLSASTKMLERFPNNLPKHRENVIPADSEKKSFEEVINLVDQTSENAPTTVSRDVEEKPAHAPARPEAPVDSM
# notes: Ire1, human, luminal domain regions I-V, residues 24-440; also called Ire1 I–V; Ire1 LD; source: E. coli BL21 (DE3), purified (Co2+-NTA, anion exchange, SEC); not shown: His6, N-terminal, cleaved
# B3: Perk luminal domain, complete (region I–V, residues 54–509) (domain or fragment, human, UniProt Q9NZJ5 54-509, looked up)
# chain: TSATRVPAAGAVAAAEVTVEDAEALPAAAGEQEPRGPEPDDETELRPRGRSLVIISTLDGRIAALDPENHGKKQWDLDVGSGSLVSSSLSKPEVFGNKMIIPSLDGALFQWDQDRESMETVPFTVESLLESSYKFGDDVVLVGGKSLTTYGLSAYSGKVRYICSALGCRQWDSDEMEQEEDILLLQRTQKTVRAVGPRSGNEKWNFSVGHFELRYIPDMETRAGFIESTFKPNENTEESKIISDVEEQEAAIMDIVIKVSVADWKVMAFSKKGGHLEWEYQFCTPIASAWLLKDGKVIPISLFDDTSYTSNDDVLEDEEDIVEAARGATENSVYLGMYRGQLYLQSSVRISEKFPSSPKALESVTNENAIIPLPTIKWKPLIHSPSRTPVLVGSDEFDKCLSNDKFSHEEYSNGALSILQYPYDNGYYLPYYKRERNKRSTQITVRFLDNPHYNKN
# notes: Perk, human, luminal domain regions I-V, residues 54-509; see recheck on the SEC MALS mass; also called Perk I–V; Perk LD; source: E. coli BL21 (DE3), purified (Co2+-NTA, anion exchange, SEC); not shown: His6, N-terminal, cleaved
# B4: unfolded protein CH1 (immunoglobulin constant heavy chain domain) (domain or fragment)
# chain: not shown
# notes: immunoglobulin constant heavy chain domain CH1, intrinsically unfolded without CL; also called CH1 substrate; source: expressed as previously described (Marcinowski et al., 2011)
# B5: Ire1 luminal domain region I–IV (residues 24–390) (domain or fragment, human, UniProt O75460 24-390, looked up)
# chain: STVTLPETLLFVSTLDGSLHAVSKRTGSIKWTLKEDPVLQVPTHVEEPAFLPDPNDGSLYTLGSKNNEGLTKLPFTIPELVQASPCRSSDGILYMGKKQDIWYVIDLLTGEKQQTLSSAFADSLCPSTSLLYLGRTEYTITMYDTKTRELRWNATYFDYAASLPEDDVDYKMSHFVSNGDGLVVTVDSESGDVLWIQNYASPVVAFYVWQREGLRKVMHINVAVETLRYLTFMSGEVGRITKWKYPFPKETEAKSKLTPTLYVGKYSTSLYASPSMVHEGVAVVPRGSTLPLLEGPQTDGVTIGDKGECVITPSTDVKFDPGLKSKNKLNYLRNYWLLIGHHETPLSASTKMLERFPNNLPKHRENV
# notes: Ire1, human, luminal domain regions I-IV, residues 24-390; also called Ire1 I–IV; source: E. coli BL21 (DE3), purified (Co2+-NTA, anion exchange, SEC); not shown: His6, N-terminal, cleaved
# B6: BiP ATPase domain (residues 28–405), His6-tag removed (domain or fragment)
# chain: not shown
# notes: BiP, human, ATPase domain, residues 28-405; also called BiP's ATPase domain; source: E. coli BL21 (DE3), purified (Co2+-NTA, anion exchange, SEC); not shown: His6, N-terminal, cleaved
# B7: Ire1 luminal domain region II–IV (residues 32–390) (domain or fragment, human, UniProt O75460 32-390, looked up)
# chain: LLFVSTLDGSLHAVSKRTGSIKWTLKEDPVLQVPTHVEEPAFLPDPNDGSLYTLGSKNNEGLTKLPFTIPELVQASPCRSSDGILYMGKKQDIWYVIDLLTGEKQQTLSSAFADSLCPSTSLLYLGRTEYTITMYDTKTRELRWNATYFDYAASLPEDDVDYKMSHFVSNGDGLVVTVDSESGDVLWIQNYASPVVAFYVWQREGLRKVMHINVAVETLRYLTFMSGEVGRITKWKYPFPKETEAKSKLTPTLYVGKYSTSLYASPSMVHEGVAVVPRGSTLPLLEGPQTDGVTIGDKGECVITPSTDVKFDPGLKSKNKLNYLRNYWLLIGHHETPLSASTKMLERFPNNLPKHRENV
# notes: Ire1, human, luminal domain regions II-IV, residues 32-390; With cross linker it forms dimer and tetramer species; also called Ire1 II–IV; Ire1 LD for cross-link experiment; source: E. coli BL21 (DE3), purified (Co2+-NTA, anion exchange, SEC); not shown: His6, N-terminal, cleaved
# B8: His6-tagged BiP ATPase domain (residues 28–405) (domain or fragment)
# chain: not shown
# notes: BiP, human, ATPase domain, residues 28-405; also called His6-tagged BiP ATPase domain protein; source: E. coli BL21 (DE3), purified (Co2+-NTA, anion exchange, SEC); not shown: His6, N-terminal, kept
# What was measured:
# [1] = biological target: B6; experiment: MST; Monolith NT.115; buffer B (50 mM HEPES pH 7.5, 75 mM NaCl, 10% glycerol, 1 mM TCEP), no nucleotide; one partner labelled (Red-NHS) at 50 nM, sixteen twofold dilutions of the unlabelled partner (which was labelled is not told); 25°C; three independent experiments averaged; settings: both partners purified
# SEC-MALS = biological target: the molecule itself; experiment: SEC-MALS
# [2] = biological target: T1, ΔEspP, yeast Ire1-specific unfolded peptide mimic; experiment: ITC; settings: both partners purified
# T1 construct: also called unfolded protein peptide mimic; source: bought: AltaBiosciences
# [3] = biological target: T2, full-length BiP (BiP FL, residues 28–654), His6-tag removed (human, UniProt P11021 28-654); experiment: MST; Monolith NT.115; buffer B (50 mM HEPES pH 7.5, 75 mM NaCl, 10% glycerol, 1 mM TCEP), no nucleotide; one partner labelled (Red-NHS) at 50 nM, sixteen twofold dilutions of the unlabelled partner (which was labelled is not told); 25°C; three independent experiments averaged; settings: both partners purified
# T2 construct: BiP (ER Hsp70 chaperone), human, residues 28-654; In MST one partner carried the Red-NHS label; also called ER Hsp70 chaperone; source: E. coli BL21 (DE3), purified (Co2+-NTA, anion exchange, SEC); not shown: His6, N-terminal, cleaved
# [4] = biological target: T3, BiP substrate binding domain (residues 422–654), His6-tag removed (human, UniProt P11021 422-654); experiment: as above; settings: both partners purified
# T3 construct: also called BiP SBD; source: E. coli BL21 (DE3), purified (Co2+-NTA, anion exchange, SEC); not shown: His6, N-terminal, cleaved
# [5] = biological target: B2; experiment: as above; settings: both partners purified
# [6] = biological target: B3; experiment: as above; settings: both partners purified
# [7] = biological target: the molecule itself; experiment: cross-linking; EGS, 50-fold molar excess, 1 hr; proteins at 50 μM in 50 mM Hepes pH 8.0, 50 mM NaCl, 5% glycerol, 5 mM DTT; alone or in 1:1 molar mixture; SDS-PAGE and anti-His6 blot
# [8] = biological target: B7; experiment: as above; settings: both partners purified
# T2 sequence (P11021 28-654): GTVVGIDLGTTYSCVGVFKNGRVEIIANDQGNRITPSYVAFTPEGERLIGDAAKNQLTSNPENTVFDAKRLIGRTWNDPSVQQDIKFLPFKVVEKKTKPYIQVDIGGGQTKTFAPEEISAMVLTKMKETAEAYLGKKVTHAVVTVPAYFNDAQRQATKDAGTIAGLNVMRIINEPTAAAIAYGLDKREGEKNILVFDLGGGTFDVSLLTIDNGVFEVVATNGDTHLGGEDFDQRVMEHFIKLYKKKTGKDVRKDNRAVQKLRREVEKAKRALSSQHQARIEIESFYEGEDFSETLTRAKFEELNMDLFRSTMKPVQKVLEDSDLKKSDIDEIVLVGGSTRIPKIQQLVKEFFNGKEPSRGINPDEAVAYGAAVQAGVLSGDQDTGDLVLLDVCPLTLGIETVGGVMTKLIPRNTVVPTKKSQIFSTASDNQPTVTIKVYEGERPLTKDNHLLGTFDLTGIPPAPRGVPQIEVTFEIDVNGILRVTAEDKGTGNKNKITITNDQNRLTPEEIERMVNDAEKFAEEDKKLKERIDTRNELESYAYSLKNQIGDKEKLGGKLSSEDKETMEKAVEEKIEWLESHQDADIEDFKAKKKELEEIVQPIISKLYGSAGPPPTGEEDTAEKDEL
# T3 sequence (P11021 422-654): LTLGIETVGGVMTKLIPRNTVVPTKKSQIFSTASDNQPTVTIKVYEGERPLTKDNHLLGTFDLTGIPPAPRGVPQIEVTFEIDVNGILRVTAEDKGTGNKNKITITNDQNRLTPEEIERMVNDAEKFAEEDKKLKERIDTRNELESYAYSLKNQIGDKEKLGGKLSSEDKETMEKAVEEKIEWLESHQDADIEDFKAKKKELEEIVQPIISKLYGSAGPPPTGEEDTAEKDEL
binder,measurement,setting,value
B1,binding result,[1],binds
B2,stoichiometry N,SEC-MALS,2
same,Kd,[2],6.4 µM
same,Kd,[3],1.33 µM
B3,stoichiometry N,SEC-MALS,2
same,Kd,[2],9.3 µM
same,Kd,[3],1.92 µM
B4,Kd,[3],8.7 µM
same,Kd,[4],5.1 µM
B5,binding result,[1],binds
B6,Kd,[5],1.97 µM
same,Kd,[6],2.05 µM
B7,stoichiometry N,[7],2 and 4
same,binding result,[1],binds
B8,stoichiometry N,[8],1 1:1 and 2 2:1 (which of the two stands twice is not said)
